# Measurements from patent US6441131B1, “Peptides, method for assaying human pepsinogen II or human pepsin II, and assaying kit” (Ono Pharmaceutical Co., Ltd., priority 1997, dated 2002).
# Non-standard residues stand in square brackets, D forms with d. Primed or numbered codes have the meaning given here. No end group written: not given here. *: point of attachment. DCHA″ = 3,5-dichloro-4-hydroxyaniline residue, Oc1c(Cl)cc(N*)cc1Cl; Phe(4-Cl) = N[C@@H](Cc1ccc(Cl)cc1)C(=O)O; Phe(4-I) = N[C@@H](Cc1ccc(I)cc1)C(=O)O; 2Nal = N[C@@H](Cc1ccc2ccccc2c1)C(=O)O; pNA = O=[N+]([O-])c1ccc(N*)cc1; NH(3-MeOPh) = COc1cccc(N*)c1; Nva = CCC[C@H](N)C(=O)O; Sar = CNCC(=O)O
# Assays:
# human pepsin II = biological target: T1, human pepsin II (Homo sapiens, UniProt P20142); assay: Digesting of the peptide substrate by human pepsin II (assay by HPLC); format: biochemical; details: for ration of digesting rate (pepsin II/ pepsin I): calculated from the HPLC digesting rates, pepsin II over pepsin I; for pepsin II digesting rate: peptide 0.5 mM, tartaric acid or glycine buffer pH2.0, 37° C., released amino acid derivative (II-A) by HPLC
# T1 sequence (P20142 60-388): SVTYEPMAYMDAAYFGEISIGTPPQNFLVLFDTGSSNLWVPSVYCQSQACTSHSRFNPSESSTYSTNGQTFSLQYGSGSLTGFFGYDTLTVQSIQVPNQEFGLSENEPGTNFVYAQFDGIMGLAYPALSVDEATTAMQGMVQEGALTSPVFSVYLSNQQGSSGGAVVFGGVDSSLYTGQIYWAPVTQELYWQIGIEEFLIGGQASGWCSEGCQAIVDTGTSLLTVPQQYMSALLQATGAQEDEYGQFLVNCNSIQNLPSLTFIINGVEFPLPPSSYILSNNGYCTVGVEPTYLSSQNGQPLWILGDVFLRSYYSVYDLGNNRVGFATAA
# Experimental: (§1) Tartaric acid buffer or glycine buffer (pH2.0) containing each peptide (0.5 mM) prepared in Examples 1 and 2(3) etc. (Examples in Table 3 described hereinafter).
# (§2) An aqueous solution of human pepsin I or human pepsin II (0.01 mg/ml)
# (§3) Enzyme solution I (0.1 ml) was added to Reagent (1.0 ml). After incubation of the mixture at 37° C. for 10, 30, 60 minutes, the mixture solution (0.3 ml) was collected. To the collected solution, 2N-NaOH (0.025 ml) was added to terminate the reaction. After addition of 2N-HCl (0.025 ml) to the mixture, protein was removed by the ultrafiltration. The assaying the amino acid derivatives of the formula (II-A) [drawing 19]
# (§4) which was released after digesting by human pepsin in the obtained solution was carried out by HPLC using C18 column. The ratio of digesting rate of pepsin II/pepsin I was calculated according to the result from assay by HPLC. Such assay is carried out to confirm that a substrate was digested by pepsin I or pepsin II correctly and that the amino acid derivatives of the formula (II-A) were released.
# human pepsin I = human pepsin I (Homo sapiens, UniProt P0DJD7); assay: Digesting of the peptide substrate by human pepsin I (assay by HPLC); format: biochemical; details: peptide 0.5 mM, tartaric acid or glycine buffer pH2.0, 37° C., released amino acid derivative (II-A) by HPLC
# Chain of human pepsin I (P0DJD7 63-388): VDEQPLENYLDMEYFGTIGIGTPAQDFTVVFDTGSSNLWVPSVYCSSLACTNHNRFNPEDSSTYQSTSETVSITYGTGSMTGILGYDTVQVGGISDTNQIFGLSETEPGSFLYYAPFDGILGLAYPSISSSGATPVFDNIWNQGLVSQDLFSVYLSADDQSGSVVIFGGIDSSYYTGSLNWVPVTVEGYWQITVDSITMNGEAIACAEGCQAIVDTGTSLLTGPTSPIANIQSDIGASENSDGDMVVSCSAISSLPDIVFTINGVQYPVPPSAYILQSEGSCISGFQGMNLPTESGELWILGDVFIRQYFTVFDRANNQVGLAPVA
# Experimental: as §1, §2, §3, §4
Substance,ration of digesting rate (pepsin II/ pepsin I) (human pepsin II),pepsin II digesting rate (human pepsin II) [μM/min · 1 μg Enz],pepsin I digesting rate (human pepsin I) [μM/min · 1 μg Enz]
2(53): Q=Gln Leu Ser Glu; 2-Naphthyl; R4=Me; (EE)m single bond; Z=p-NA (QLSE[2Nal]A-pNA; also: TFMSA salt),621.0,61.96,0.0998
2(78): Q=Leu Ser Glu; 2-Naphthyl; R4=Me; (EE)m=Leu; Z=p-NA (LSE[2Nal]AL-pNA; also: TFMSA salt),20.74,54.41,2.6240
2(25): Q=Pro Gln Gln Met; 2-Naphthyl; R4=Me; (EE)m single bond; Z=p-NA (PQQM[2Nal]A-pNA; also: TFA salt),889.7,5.56,0.0063
2(83): Q=Sar Leu Ser Glu; 2-Naphthyl; R4=Me; (EE)m=Ala; Z=m-ASD ([Sar]LSE[2Nal]AA-{NH(3-MeOPh)}; also: TFMSA salt),29.87,70.66,2.3660
2(16): Q=Asn Pro Gln Gln Ala; 4-I-Phenyl; R4=Me; (EE)m single bond; Z=p-NA (NPQQA[Phe(4-I)]A-pNA; also: TFA salt),1094.8,8.95,0.0082
2(24): Q=Pro Gln Gln Gly; 2-Naphthyl; R4=Me; (EE)m single bond; Z=p-NA (PQQG[2Nal]A-pNA; also: TFA salt),2081.6,12.06,0.0058
2(23): Q=Pro Gln Gln Gln; 2-Naphthyl; R4=Me; (EE)m single bond; Z=p-NA (PQQQ[2Nal]A-pNA; also: TFA salt),308.8,5.90,0.0191
ProLeuSerGluAla(2-Naph)Ala-pNA (PLSE[2Nal]A-pNA) [Example 1],198.2,55.40,0.2795
2(3): Q=Pro Gln Gln Ala; 4-I-Phenyl; R4=H; (EE)m single bond; Z=p-NA (PQQA[Phe(4-I)]G-pNA; also: TFA salt),2065.1,4.23,0.0020
2(7): Q=Pro Gln Gln Ala; 4-Cl-Phenyl; R4=Me; (EE)m single bond; Z=p-NA (PQQA[Phe(4-Cl)]A-pNA; also: TFA salt),104.4,3.50,0.0335
2(63): Q=Pro Asn Asn Leu Ser Glu; 2-Naphthyl; R4=Me; (EE)m single bond; Z=p-NA (PNNLSE[2Nal]A-pNA; also: TFMSA salt),169.2,29.84,0.1763
2(80): Q=Leu Ser Glu; 2-Naphthyl; R4=Me; (EE)m=Gly; Z=p-NA (LSE[2Nal]AG-pNA; also: TFMSA salt),105.48,15.77,0.1500
2(61): Q=Ac Lys Asn Leu Ser Glu; 2-Naphthyl; R4=Me; (EE)m single bond; Z=p-NA (Ac-KNLSE[2Nal]A-pNA; also: TFMSA salt),219.0,36.81,0.1681
2(36): Q=Pro Asn Ser Glu; 2-Naphthyl; R4=Me; (EE)m single bond; Z=p-NA (PNSE[2Nal]A-pNA; also: TFMSA salt),193.5,21.22,0.1096
2(57): Q=Thr Leu Ser Glu; 2-Naphthyl; R4=Me; (EE)m single bond; Z=p-NA (TLSE[2Nal]A-pNA; also: TFMSA salt),660.9,18.78,0.0284
Nα-Me-GlyLeuSerGluAla(2-Naph)Ala-pNA.TFMSA ([Sar]LSE[2Nal]A-pNA; also: TFMSA salt) [Example 2(70)],158.4,49.56,0.3128
2(54): Q=Lys Leu Ser Glu; 2-Naphthyl; R4=Me; (EE)m single bond; Z=p-NA (KLSE[2Nal]A-pNA; also: TFMSA salt),176.7,48.39,0.2739
2(34): Q=Pro Gln Asp Glu; 2-Naphthyl; R4=Me; (EE)m single bond; Z=p-NA (PQDE[2Nal]A-pNA; also: TFMSA salt),711.9,15.40,0.0216
2(18): Q=Ala Pro Gln Gln Ala; 4-I-Phenyl; R4=Me; (EE)m single bond; Z=p-NA (APQQA[Phe(4-I)]A-pNA; also: TFA salt),757.0,9.20,0.0122
2(51): Q=Gly Leu Ser Glu; 2-Naphthyl; R4=Me; (EE)m single bond; Z=p-NA (GLSE[2Nal]A-pNA; also: TFMSA salt),333.8,54.43,0.1631
2(39): Q=Pro Met Ser Glu; 2-Naphthyl; R4=Me; (EE)m single bond; Z=p-NA (PMSE[2Nal]A-pNA; also: TFMSA salt),201.1,45.79,0.2277
2(22): Q=Pro Gln Gln Asn; 2-Naphthyl; R4=Me; (EE)m single bond; Z=p-NA (PQQN[2Nal]A-pNA; not fully specified),222.6,12.87,0.0578
2(14): Q=Ac Lys Pro Gln Gln Ala; 4-I-Phenyl; R4=Me; (EE)m single bond; Z=p-NA (Ac-KPQQA[Phe(4-I)]A-pNA; also: TFA salt),410.2,3.85,0.0094
2(45): Q=Pro Thr Ser Glu; 2-Naphthyl; R4=Me; (EE)m single bond; Z=p-NA (PTSE[2Nal]A-pNA; also: TFMSA salt),161.4,40.55,0.2512
2(33): Q=Pro Gln Glu Glu; 2-Naphthyl; R4=Me; (EE)m single bond; Z=p-NA (PQEE[2Nal]A-pNA; also: TFMSA salt),402.3,25.41,0.0632
2(56): Q=Ser Leu Ser Glu; 2-Naphthyl; R4=Me; (EE)m single bond; Z=p-NA (SLSE[2Nal]A-pNA; also: TFMSA salt),562.6,10.94,0.0194
2(11): Q=Pro Gln Gln Ala; 2-Naphthyl; R4=n-Pr; (EE)m single bond; Z=p-NA (PQQA[2Nal][Nva]-pNA; also: TFA salt),174.9,4.10,0.0235
Nα-Me-GlySerGlyAla(2-Naph)AlaAla-DCHA.TFMSA ([Sar]SG[2Nal]AA-{DCHA″}; also: TFMSA salt) [Example 2(84)],119.5,33.07,0.2767
